Here are results for one substance from patent US20090060915A1.

Holding throughout (test): cell-based or functional assay
The target in test [1] is endogenous angiomotin of bovine capillary endothelial (BCE) cells (p80- and p130-isoforms) (bovine).
For test [2], the target named is p130-angiomotin (Homo sapiens (Human)) (UniProt Q4VCS5).
Test [3] addresses p80-angiomotin (Homo sapiens (Human)) (UniProt Q4VCS5).

With “Human angiostatin (kringle 1-4) (from UniProt P00747 99-459) (ligand)”, the decrease in bFGF-stimulated migration of hTERT+-BCE cells, migration chamber assay in test [1] is 85%. In test [2], this substance came in with a decrease in bFGF-stimulated migration of MAE cells expressing p130-angiomotin, Boyden chamber, angiostatin 5 ug/ml of 160%; a decrease in motility of CHO cells expressing p130-angiomotin, Boyden chamber of 50%; an invasion of Matrigel by human cytotrophoblasts, angiostatin 5 ug/ml of 3 fold. Moreover, in test [3], the decrease in bFGF-stimulated migration of MAE cells expressing p80-angiomotin, Boyden chamber, angiostatin 5 ug/ml is 175%; the decrease in motility of CHO cells expressing p80-angiomotin, Boyden chamber turned out to be 50%; the invasion of Matrigel by human cytotrophoblasts, angiostatin 5 ug/ml is 3 fold.
